{
  "source": "IntAct's records for PubMed 22064073",
  "parents": {"B1": {"name": "PAX-interacting protein 1 (Homo sapiens), Q6ZW49-1 (parent)", "chain": "MVFLQNHVRFFLESLPAFLRVLIQAGALCWSLPELSQGEVGKGACPAEVGKHRDHLPSSDPVLMQAEASVVMCWVSSEDRSALWALVTFYGGDCQLTLNKKCTHLIVPEPKGEKYECALKRASIKIVTPDWVLDCVSEKTKKDEAFYHPRLIIYEEEEEEEEEEEEVENEEQDSQNEGSTDEKSSPASSQEGSPSGDQQFSPKSNTEKSKGELMFDDSSDSSPEKQERNLNWTPAEVPQLAAAKRRLPQGKEPGLINLCANVPPVPGNILPPEVRGNLMAAGQNLQSSERSEMIATWSPAVRTLRNITNNADIQQMNRPSNVAHILQTLSAPTKNLEQQVNHSQQGHTNANAVLFSQVKVTPETHMLQQQQQAQQQQQQHPVLHLQPQQIMQLQQQQQQQISQQPYPQQPPHPFSQQQQQQQQAHPHQFSQQQLQFPQQQLHPPQQLHRPQQQLQPFQQQHALQQQFHQLQQHQLQQQQLAQLQQQHSLLQQQQQQQIQQQQLQRMHQQQQQQQMQSQTAPHLSQTSQALQHQVPPQQPPQQQQQQQPPPSPQQHQLFGHDPAVEIPEEGFLLGCVFAIADYPEQMSDKQLLATWKRIIQAHGGTVDPTFTSRCTHLLCESQVSSAYAQAIRERKRCVTAHWLNTVLKKKKMVPPHRALHFPVAFPPGGKPCSQHIISVTGFVDSDRDDLKLMAYLAGAKYTGYLCRSNTVLICKEPTGLKYEKAKEWRIPCVNAQWLGDILLGNFEALRQIQYSRYTAFSLQDPFAPTQHLVLNLLDAWRVPLKVSAELLMSIRLPPKLKQNEVANVQPSSKRARIEDVPPPTKKLTPELTPFVLFTGFEPVQVQQYIKKLYILGGEVAESAQKCTHLIASKVTRTVKFLTAISVVKHIVTPEWLEECFRCQKFIDEQNYILRDAEAEVLFSFSLEESLKRAHVSPLFKAKYFYITPGICPSLSTMKAIVECAGGKVLSKQPSFRKLMEHKQNSSLSEIILISCENDLHLCREYFARGIDVHNAEFVLTGVLTQTLDYESYKFN"}},
  "data": [
    {"variants_of": "B1", "details": "with h2ax_human H2AX", "values": [
      {"variant": "E1016A", "effect of a mutation on the interaction": "decreasing interaction"}
    ]},
    {"variants_of": "B1", "details": "with h2ax_human H2AX", "remark": "another data set of the same source", "values": [
      {"variant": "R876D", "effect of a mutation on the interaction": "disrupting interaction"}
    ]},
    {"variants_of": "B1", "details": "with h2ax_human H2AX", "remark": "another data set of the same source", "values": [
      {"variant": "K879M", "effect of a mutation on the interaction": "disrupting interaction"}
    ]},
    {"variants_of": "B1", "details": "with h2ax_human H2AX", "remark": "another data set of the same source", "values": [
      {"variant": "T838A", "effect of a mutation on the interaction": "disrupting interaction"}
    ]},
    {"variants_of": "B1", "details": "with h2ax_human H2AX", "remark": "another data set of the same source", "values": [
      {"variant": "T1020A", "effect of a mutation on the interaction": "increasing interaction"}
    ]}
  ]
}
